For one data set, the system named is CaRhGC. Briefly: RP-HPLC of cGMP, initial rates, Hill fit. The format is biochemical, Catenaria anguillulae. The note with it: GTP/Mn2+, pH 7.5, 22 °C, 522 nm light 0.010 mW mm^-2, dark activity subtracted, detergent. The text has this: RP-HPLC of cGMP, initial rates, Hill fit on CaRhGC
The subject of data set [1] is T1, Nc1ncnc2c1ncn2[C@@H]1O[C@H](COP(=O)(O)OP(=O)(O)OP(=O)(O)O)[C@@H](O)[C@H]1O.
T1 construct: CaAC is a homodimer in the crystal
Briefly: RP-HPLC of cAMP, initial rates, Hill fit. The format is biochemical, Catenaria anguillulae. The note with it: ATP/Mn2+, pH 7.5, 22 °C. The text has this:
RP-HPLC of cAMP, initial rates, Hill fit on CaGC (mutant form: CaAC)

Substrate in data set [2]: Nc1nc2c(ncn2[C@@H]2O[C@H](COP(=O)(O)OP(=O)(O)OP(=O)(O)O)[C@@H](O)[C@H]2O)c(=O)[nH]1
Briefly: RP-HPLC of cGMP, initial rates, Hill fit. The conditions noted are these: GTP/Mn2+, pH 7.5, 22 °C, 522 nm light 0.010 mW mm^-2, dark activity subtracted, detergent. The format is biochemical, Blastocladiella emersonii. The text has this:
RP-HPLC of cGMP, initial rates, Hill fit on BeRhGC

Substrate in data set [3]: Nc1nc2c(ncn2[C@@H]2O[C@H](COP(=O)(O)OP(=O)(O)OP(=O)(O)O)[C@@H](O)[C@H]2O)c(=O)[nH]1
Briefly: RP-HPLC of cGMP, initial rates, Hill fit. The conditions noted are these: GTP/Mn2+, pH 7.5, 22 °C. The format is biochemical, Blastocladiella emersonii. The text has this: RP-HPLC of cGMP, initial rates, Hill fit on BeGC

For `Nc1nc2c(ncn2[C@@H]2O[C@H](COP(=O)(O)OP(=O)(O)OP(=O)(O)O)[C@@H](O)[C@H]2O)c(=O)[nH]1` [GTP], the Michaelis-Menten constant (Km) (in general, the concentration of substrate that gives half-maximal velocity) in the data set on CaRhGC amounted to 6.1 ± 5.59 mM.

Turning to “CaGC (mutant form: CaAC) (Catenaria anguillulae PL171; C201D/E132K)”, in data set [1], the Km was 6.09 ± 1.74 mM; the kcat (as a rule, the maximal rate divided by the concentration of active sites) came to 1.012 s⁻¹; the kcat/Km (commonly the second-order rate constant that governs catalysis at low substrate concentration) was 170 M⁻¹ s⁻¹.

B1: BeRhGC (Blastocladiella emersonii) (protein)
chain: MKDKDNNLRGACSSCNCPEYCFSPTSTLCDDCKCSVTKHPIVEQPLSRNGSFRSSGASLLPSPSSPNVKITSTVGLRSRKSESQANVRGSMISNSNSGSRSNNSGGAGGGSGGSSSSKGGSALANYQSAMSELWSWNMMLSTPSLKFLTVQFTTWIVLTTVGAIYTLFFHERQAYNRGWADIWYGYGAFGFGLGLSFAYMGFTGARNPEKKALSLCLLGVNFISFMSYIIIMLRLTPTIEGTMANPVEPARYLEWIATCPVLILLISEITQYPHDPYKVIVNDYALCLAGFVGAISAQQPWGDLAHFVSCLCFSYVVYSLWSCFTGAIDGETQCNVEKSGLRWIRFSTITTWSLFPITWFSYTSGLISFTVAEAGFSMIDIGAKVFLTLVLVNSTVEQAQNQKVDAITAIAEELENQINNCDAILQKMMPEGVLEQLKNGQATEAKEYESVTVFFSDITNFTVISSRTSTKDMMATLNKLWLEYDAIAKRWGVYKVETIGDAYLGVTGAPDVVPDHAERACNFAVDIIEMIKSFKTITGESINIRIGLNSGPVTAGVLGDLNPHWCLVGDTVNTASRMESTSKAGHIHISESTYHFIKSKFVTQPLDVMEVKGKGKMQTYWVLGRK
Take B1: in data set [2], the Km came out at 0.92 ± 0.27 mM, the kcat came to 1.07 s⁻¹ and the specificity constant (kcat/Km) came to 1200 M⁻¹ s⁻¹.

B2: BeGC (Blastocladiella emersonii) (protein)
chain: TEAKEYESVTVFFSDITNFTVISSRTSTKDMMATLNKLWLEYDAIAKRWGVYKVETIGDAYLGVTGAPDVVPDHAERACNFAVDIIEMIKSFKTITGESINIRIGLNSGPVTAGVLGDLNPHWCLVGDTVNTASRMESTSKAGHIHISESTYHFIKSKFVTQPLDVMEVKGKGKMQTYWVLGRK
For B2, in data set [3], the Michaelis constant (Km) was determined as 2.16 ± 0.30 mM, the kcat came out at 0.339 s⁻¹ and the kcat/Km worked out at 160 M⁻¹ s⁻¹.

For the origin of these results see paper PMC5967339, “Rhodopsin-cyclases for photocontrol of cGMP/cAMP and 2.3 Å structure of the adenylyl cyclase domain” (Nature Communications, 2018).
